This experiment has as its target T1, MBP-5Myc-HsSAS-6 full length (human, UniProt Q6UVJ0 1-657).
T1 construct: HsSAS-6 full length, cloned into a modified pENTR-1A-5Myc-MBP vector; also called MBP-HsSAS-6; source: Sf9 (baculovirus), purified (amylose resin); not shown: MBP, N-terminal, kept; 5Myc, N-terminal, kept
T1 sequence (looked up): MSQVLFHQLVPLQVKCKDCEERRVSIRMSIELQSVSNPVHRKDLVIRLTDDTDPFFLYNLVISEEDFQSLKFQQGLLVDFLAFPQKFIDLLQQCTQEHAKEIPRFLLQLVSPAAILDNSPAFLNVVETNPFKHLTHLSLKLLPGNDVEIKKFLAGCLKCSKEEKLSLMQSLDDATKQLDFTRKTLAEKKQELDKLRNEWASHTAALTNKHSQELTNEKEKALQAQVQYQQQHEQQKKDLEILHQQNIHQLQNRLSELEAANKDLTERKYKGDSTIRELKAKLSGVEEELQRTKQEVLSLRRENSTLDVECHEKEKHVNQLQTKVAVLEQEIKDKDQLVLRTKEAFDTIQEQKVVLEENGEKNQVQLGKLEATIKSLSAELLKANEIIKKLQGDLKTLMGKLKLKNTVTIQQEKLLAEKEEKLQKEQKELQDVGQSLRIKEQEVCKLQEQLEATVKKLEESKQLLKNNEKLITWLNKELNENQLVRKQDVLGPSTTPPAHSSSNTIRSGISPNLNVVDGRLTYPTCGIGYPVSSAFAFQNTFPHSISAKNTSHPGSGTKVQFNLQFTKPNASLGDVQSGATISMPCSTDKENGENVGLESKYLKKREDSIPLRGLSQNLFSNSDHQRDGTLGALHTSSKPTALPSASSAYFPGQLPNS
The experiment is described as follows: pull-down; bacterially purified STIL fragments after an in vitro kinase reaction with Plk4ΔPEST-FLAG on anti-FLAG beads (supernatant; for N3C also the FLAG-peptide eluate) incubated with MBP-HsSAS-6 full length and pulled down with amylose resin; western blot. The settings on record: both partners purified.

B1: STIL C fragment (a.a. 1,018–1,287) phosphorylated by Plk4ΔPEST-FLAG (domain or fragment, human, UniProt Q15468 1018-1287, looked up)
chain: NAHNVDHASVLACISPEAVISGLNCMSFANVGMSGLSPNGVDLSMEANAIALKYLNENQLSQLSVTRSNQNNCDPFSLLHINTDRSTVGLSLISPNNMSFATKKYMKRYGLLQSSDNSEDEEEPPDNADSKSEYLLNQNLRSIPEQLGGQKEPSKNDHEIINCSNCESVGTNADTPVLRNITNEVLQTKAKQQLTEKPAFLVKNLKPSPAVNLRTGKAEFTQHPEKENEGDITIFPESLQPSETLKQMNSMNSVGTFLDVKRLRQLPKLF
modifications: phosphorylated in vitro by Plk4ΔPEST-FLAG: S1061, S1116, S1181, T1238, T1250
notes: human STIL C fragment, a.a; 1,018–1,287; also called GST-HA-STIL C; C-terminal fragment of STIL; source: E. coli BL21 gold (DE3), purified (glutathione sepharose), then phosphorylated in vitro by Plk4ΔPEST-FLAG; not shown: HA, N-terminal, kept
On to B1, for which the binding result is “binds”.

Source of the values: paper PMC4220463, “Direct interaction of Plk4 with STIL ensures formation of a single procentriole per parental centriole” (Nature Communications, 2014).
